Laboratory results taken from patent US20240325555A1 (LANOVA MEDICINES, published 2024).
Where two headings read alike, the source gives them in different places.

Experiments:
[1] = molecular target: rhesus LIV-1 (rhesus, UniProt H9FSJ2 30-735); assay: FACS, HEK293/Rhe_LIV-1 cells
Method: (§1) Humanized antibodies 5D6B10.z7, 124H4D11.p2.z4 and 290F10G10.p1.z2 were selected for further testing. In this example, FACS cross binding of these selected antibodies to LIV-1 of different species were assessed using flow cytometry.
(§2) Cell based binding of optimal leads to different species LIV-1 expressing cells were assessed using flow cytometry. Briefly, the cells were incubated with optimal leads (from 100 nM, 6 folds dilution, 8 points). After incubation at 4° C. for 60 minutes, the cells were washed with 2% FBS/PBS buffer twice, then stained with fluorescent conjugated secondary antibody at 4° C. for 30 minutes. After that the cells were washed twice and resuspended in 80 μL of 2% FBS/PBS buffer. Fluorescent signal of binding was detected using Agilent. The EC50 was calculated using the GraphPad Software (LaJolla, CA).

[2] = molecular target: T1, human LIV-1 (human, UniProt Q13433 29-755); assay: cell-based or functional assay
T1 sequence (looked up): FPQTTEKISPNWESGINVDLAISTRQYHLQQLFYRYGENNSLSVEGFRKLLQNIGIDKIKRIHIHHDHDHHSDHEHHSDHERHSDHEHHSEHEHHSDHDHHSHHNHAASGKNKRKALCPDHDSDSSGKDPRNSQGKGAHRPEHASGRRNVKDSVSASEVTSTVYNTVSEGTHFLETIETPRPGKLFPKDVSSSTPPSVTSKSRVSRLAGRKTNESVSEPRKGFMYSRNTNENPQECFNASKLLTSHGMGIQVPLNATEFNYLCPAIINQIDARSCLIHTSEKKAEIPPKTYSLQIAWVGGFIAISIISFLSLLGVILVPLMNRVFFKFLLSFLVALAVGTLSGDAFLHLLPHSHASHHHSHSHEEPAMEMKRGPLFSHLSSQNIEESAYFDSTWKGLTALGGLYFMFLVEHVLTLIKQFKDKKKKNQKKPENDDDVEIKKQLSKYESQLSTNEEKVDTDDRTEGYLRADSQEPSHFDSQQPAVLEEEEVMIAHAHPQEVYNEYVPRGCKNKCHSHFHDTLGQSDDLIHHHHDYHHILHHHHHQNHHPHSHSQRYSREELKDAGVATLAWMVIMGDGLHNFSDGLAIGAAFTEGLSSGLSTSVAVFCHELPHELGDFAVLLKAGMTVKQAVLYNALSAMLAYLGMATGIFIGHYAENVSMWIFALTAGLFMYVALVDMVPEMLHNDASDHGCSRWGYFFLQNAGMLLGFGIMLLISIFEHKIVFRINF

[3] = molecular target: T2, rat LIV-1 (rat, UniProt Q4V887 21-741); assay: FACS, HEK293/Rat_LIV-1 cells
T2 construct: whole, on cells
T2 sequence (looked up): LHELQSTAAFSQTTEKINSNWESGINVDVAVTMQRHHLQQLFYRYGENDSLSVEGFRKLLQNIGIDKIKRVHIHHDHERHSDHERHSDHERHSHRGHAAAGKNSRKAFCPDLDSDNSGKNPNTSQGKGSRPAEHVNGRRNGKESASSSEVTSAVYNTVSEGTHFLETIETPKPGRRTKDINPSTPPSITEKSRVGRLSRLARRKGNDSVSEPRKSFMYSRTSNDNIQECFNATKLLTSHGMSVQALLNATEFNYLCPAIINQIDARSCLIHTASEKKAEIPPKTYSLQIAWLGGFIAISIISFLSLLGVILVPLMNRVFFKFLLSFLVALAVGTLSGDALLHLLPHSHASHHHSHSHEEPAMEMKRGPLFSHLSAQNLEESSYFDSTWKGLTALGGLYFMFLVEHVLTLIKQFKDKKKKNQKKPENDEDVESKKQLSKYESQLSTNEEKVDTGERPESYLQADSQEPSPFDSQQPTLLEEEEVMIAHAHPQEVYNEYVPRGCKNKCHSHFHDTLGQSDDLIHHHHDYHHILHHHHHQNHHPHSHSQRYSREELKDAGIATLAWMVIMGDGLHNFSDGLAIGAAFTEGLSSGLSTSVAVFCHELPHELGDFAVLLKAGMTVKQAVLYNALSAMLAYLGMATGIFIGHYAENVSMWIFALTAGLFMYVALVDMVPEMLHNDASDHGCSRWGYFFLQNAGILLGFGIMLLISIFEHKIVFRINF
Method: as §1, §2

[4] = molecular target: T1, human LIV-1; assay: FACS, HEK293/H_LIV-1 cells
Method: (§3) Cell based binding of ADC and naked of ADC on human LIV-1 expressing cells were assessed using flow cytometry. Briefly, HEK293/H_LIV-1, both low- and high-expressing H-LIV1-positive cell lines were incubated with ADC and naked of ADC (from 100 nM, 6 folds dilution, 8 points), respectively. After incubation at 4° C. for 60 minutes, the cells were washed with FACS buffer twice, then stained with fluorescent conjugated secondary antibody at 4° C. for 30 minutes. After that the cells were washed twice and analyzed by flow cytometry.

[5] = molecular target: T3, cynomolgus LIV-1 (cynomolgus, UniProt A0A2K5WH46 30-741); assay: FACS, HEK293/Cyno_LIV-1 cells
Target sequence in this assay (A0A2K5WH46 entry or part of it): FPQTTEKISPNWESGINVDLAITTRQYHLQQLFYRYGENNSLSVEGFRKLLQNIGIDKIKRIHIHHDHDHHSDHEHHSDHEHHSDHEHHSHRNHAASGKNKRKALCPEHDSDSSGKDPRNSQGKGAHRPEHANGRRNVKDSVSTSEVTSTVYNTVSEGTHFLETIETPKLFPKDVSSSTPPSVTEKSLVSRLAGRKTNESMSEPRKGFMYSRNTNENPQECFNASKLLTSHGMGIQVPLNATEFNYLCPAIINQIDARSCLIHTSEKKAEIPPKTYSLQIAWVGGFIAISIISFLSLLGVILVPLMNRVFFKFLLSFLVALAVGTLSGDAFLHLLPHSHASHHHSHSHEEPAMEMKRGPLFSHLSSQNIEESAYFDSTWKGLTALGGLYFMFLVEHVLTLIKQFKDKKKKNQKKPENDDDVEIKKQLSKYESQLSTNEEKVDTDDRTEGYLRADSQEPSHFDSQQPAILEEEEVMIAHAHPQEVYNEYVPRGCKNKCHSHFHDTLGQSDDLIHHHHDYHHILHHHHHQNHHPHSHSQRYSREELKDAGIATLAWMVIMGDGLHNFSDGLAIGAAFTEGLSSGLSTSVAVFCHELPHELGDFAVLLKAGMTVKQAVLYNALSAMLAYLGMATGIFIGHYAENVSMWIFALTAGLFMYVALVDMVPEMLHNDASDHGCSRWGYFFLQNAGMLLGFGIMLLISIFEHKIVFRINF

[6] = molecular target: T1, human LIV-1; assay: FACS, BT20/H_LIV-1 High cells
Method: as §3

[7] = molecular target: T4, mouse LIV-1 (mouse, UniProt Q8C145 21-765); assay: FACS, HEK293/Mouse_LIV-1 cells
T4 construct: whole, on cells
T4 sequence (looked up): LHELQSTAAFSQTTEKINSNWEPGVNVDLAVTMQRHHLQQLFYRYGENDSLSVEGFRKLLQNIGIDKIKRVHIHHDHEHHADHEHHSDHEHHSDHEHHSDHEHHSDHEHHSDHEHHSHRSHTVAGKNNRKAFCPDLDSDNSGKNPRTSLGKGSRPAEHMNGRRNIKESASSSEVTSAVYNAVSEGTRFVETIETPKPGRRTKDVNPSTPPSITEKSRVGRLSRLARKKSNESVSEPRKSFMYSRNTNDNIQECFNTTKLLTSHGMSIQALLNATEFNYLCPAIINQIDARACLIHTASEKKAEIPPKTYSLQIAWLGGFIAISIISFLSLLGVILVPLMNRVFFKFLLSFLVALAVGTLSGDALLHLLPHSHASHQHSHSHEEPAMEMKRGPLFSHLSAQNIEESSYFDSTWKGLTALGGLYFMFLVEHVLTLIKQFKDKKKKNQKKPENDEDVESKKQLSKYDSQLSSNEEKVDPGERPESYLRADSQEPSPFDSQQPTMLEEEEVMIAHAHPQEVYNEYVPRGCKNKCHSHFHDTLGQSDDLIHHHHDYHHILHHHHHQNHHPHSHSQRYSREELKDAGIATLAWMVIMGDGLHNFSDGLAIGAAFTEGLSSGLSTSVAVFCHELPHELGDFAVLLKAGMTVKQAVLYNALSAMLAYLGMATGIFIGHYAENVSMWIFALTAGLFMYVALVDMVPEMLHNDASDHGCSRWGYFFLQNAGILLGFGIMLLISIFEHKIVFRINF
Method: as §1, §2

[8] = molecular target: T1, human LIV-1; assay: FACS, BT20/H_LIV-1 Low cells
Method: as §3

[9] = molecular target: T3, cynomolgus LIV-1; assay: FACS, HEK293/Cyno_LIV-1 cells; remark: listed apart in the source
Method: as §2
Target sequence in this assay (A0A2K5WH46 entry or part of it): as the sequence (A0A2K5WH46 entry or part of it) above

[10] = molecular target: T1, human LIV-1; assay: FACS, HEK293/H_LIV-1 cells; remark: listed apart in the source
Summary of the method: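 HEK293 cells expressing human LIV-1 incubated with humanized antibodies (from 100 nM, 6-fold dilutions, 8 points) at 4 °C for 60 min. Bound antibody detected with a fluorescent secondary antibody (4 °C, 30 min) by flow cytometry.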

[11] = molecular target: T1, human LIV-1; assay: FACS, HEK293/H_LIV-1 cells; remark: listed apart in the source
Summary of the method: (§4)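 HEK293 cells over-expressing human or cyno LIV-1 incubated with chimeric Abs (from 100 nM, 5-fold dilutions, 8 points) for 60 min at 4 °C, then fluorescent secondary antibody 30 min at 4 °C; washes in 2% FBS/PBS. Binding read by flow cytometry; EC50 from the titration curve.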

[12] = molecular target: T1, human LIV-1; assay: cell-based or functional assay; remark: listed apart in the source
[13] = molecular target: T3, cynomolgus LIV-1; assay: FACS, HEK293/Cyno_LIV-1 cells; remark: listed apart in the source
Summary of the method: as §4

[14] = molecular target: T1, human LIV-1; assay: cell-based or functional assay; remark: listed apart in the source
[15] = molecular target: T1, human LIV-1; assay: cell-based or functional assay; remark: listed apart in the source

Chain of rhesus LIV-1 (H9FSJ2 entry or part of it): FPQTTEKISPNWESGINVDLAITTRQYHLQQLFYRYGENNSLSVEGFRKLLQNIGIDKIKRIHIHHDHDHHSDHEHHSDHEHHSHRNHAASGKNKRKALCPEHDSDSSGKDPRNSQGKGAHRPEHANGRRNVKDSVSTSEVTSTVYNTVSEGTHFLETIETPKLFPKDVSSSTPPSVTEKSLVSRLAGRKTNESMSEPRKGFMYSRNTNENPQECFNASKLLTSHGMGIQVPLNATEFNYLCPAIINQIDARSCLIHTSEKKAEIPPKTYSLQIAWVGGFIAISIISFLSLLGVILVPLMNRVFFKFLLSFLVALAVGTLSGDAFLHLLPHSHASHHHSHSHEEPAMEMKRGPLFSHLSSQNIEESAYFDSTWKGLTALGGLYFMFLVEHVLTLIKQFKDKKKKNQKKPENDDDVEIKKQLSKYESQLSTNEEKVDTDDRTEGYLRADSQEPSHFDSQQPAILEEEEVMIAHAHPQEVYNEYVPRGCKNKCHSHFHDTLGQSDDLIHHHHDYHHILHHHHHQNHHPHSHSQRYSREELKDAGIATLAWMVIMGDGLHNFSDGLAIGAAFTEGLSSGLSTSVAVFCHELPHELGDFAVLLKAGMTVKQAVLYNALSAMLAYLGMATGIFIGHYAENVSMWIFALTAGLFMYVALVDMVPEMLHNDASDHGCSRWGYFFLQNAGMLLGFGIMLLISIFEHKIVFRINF

Binder | EC50 [1] | Top (MFI) [1] | Internalization EC50 [2] | Internalization Top (MFI) [2] | Top (MFI) [3] | binding result [3] | EC50 [4] | Top (MFI) [4] | EC50 [5] | Top (MFI) [5] | EC50 [6] | Top (MFI) [6] | Top (MFI) [7] | binding result [7] | EC50 [8] | Top (MFI) [8] | EC50 [9] | Top (MFI) [9] | EC50 [10] | Top (MFI) [10] | other results
124H4D11.p2.z4 (antibody, V domains shown) VH: QVQLVQSGAEVVKPGASVKVSCKASGFNIKDYYMHWVRQAPGQGLEWIGWIDPENDDTEYDPKFQGRVTMTADTSTSTVYMELSSLRSEDTAVYYCAARYYAFDYWGQGTMVTVSS VL: DVLMTQSPLSLPVTLGQPASISCRSSQSIVHSNANTYLEWYLQRPGQSPRLLIYKVSNRFSGVPDRFSGSGSGTDFTLKISRVEAEDVGVYYCFQGSQVPPTFGQGTKLEIK | 0.07 nM | 5420 MFI | 5.6 nM | 139000 MFI | 106 MFI | no binding (tested: 100 nM) | 0.16 nM | 19900 MFI | 0.13 nM | 8840 MFI | 0.15 nM | 20800 MFI | 107 MFI | no binding (tested: 100 nM) | 0.17 nM | 3460 MFI | 0.09 nM | 1420 MFI | 0.13 nM | 16900 MFI | –
290F10G10 (antibody, V domains shown, Tested as chimeric antibody) VH: IQLQQSGAELARPGASVKLSCKASGYTFTSYWIHWVKERPGQGLEWIGTIYPGDGDTRSTQKFKDKATVTAEKSSSTVYMQLSSLASEDSAVYYCTRSLIHDDYDKYYFDYWGQGTTLTVSS VL: DIQMTQSPSSLSASLGGKVTITCKARQDINKYIAWYQHKPGKGPRLLIHYTSILQPGIPSRFSGSGSGRDYSFSISNLEPEDIATYYCLQYDYFFTFGSGTKLEIK | 0.22 nM | 5270 MFI | – | – | 6820 MFI | – | – | – | – | – | – | – | 5550 MFI | – | – | – | 0.26 nM | 1560 MFI | – | – | EC50 [11]: 0.38 nM; Top (MFI) [11]: 9570 MFI; Cell viability(%) [12]: 3.46%; Cytotoxicity IC50 [12]: 1.33 nM; EC50 [3]: 72.2 nM; EC50 [13]: 0.53 nM; Top (MFI) [13]: 2940 MFI; ADCC reporter EC50 [14]: 0.4 nM; ADCC reporter Top (RFU) [14]: 177000 RFU; Internalization EC50 [15]: 3.5 nM; Internalization Top (RFU) [15]: 298000 RFU; EC50 [7]: 51.1 nM
5D6B10.Z7 (antibody, V domains shown) VH: QVQLVQSGGGVVQPGRSLRLSCTVSGFSLTTYGIHWVRQSPGKGLEWLGVIWTGGTTDYNAAFISRLTISKDNSKSTVYFQMNSLQAEDTAIYYCARGPSSYWGQGTLVTVSS VL: EIVMTQSPATLSVSPGERATLSCKASQNVDTNVVWYQQKPGQSPRALIYSASYRYSGVPARFSGSGSGTEFTLTISSLQSEDFAVYFCQQYNNYPWTFGQGTKVEIK | 0.3 nM | 41000 MFI | 5.7 nM | 59100 MFI | 255 MFI | no binding (tested: 100 nM) | 0.69 nM | 102000 MFI | 0.19 nM | 20400 MFI | 1.06 nM | 152000 MFI | 162 MFI | no binding (tested: 100 nM) | 0.51 nM | 34700 MFI | 0.55 nM | 13900 MFI | 0.22 nM | 50700 MFI | –
